Biological target: AP-1 clathrin adaptor complex (UniProt O43747)
Assay: GST pull-down, Western blot with anti-γ-adaptin, densitometry
Settings: HeLa cell lysates; GST-fusions immobilized on GSH-sepharose beads; parent: est. 100; read off a plot

UniProt O43747, sequence (O43747 whole entry, looked up, one chain of several): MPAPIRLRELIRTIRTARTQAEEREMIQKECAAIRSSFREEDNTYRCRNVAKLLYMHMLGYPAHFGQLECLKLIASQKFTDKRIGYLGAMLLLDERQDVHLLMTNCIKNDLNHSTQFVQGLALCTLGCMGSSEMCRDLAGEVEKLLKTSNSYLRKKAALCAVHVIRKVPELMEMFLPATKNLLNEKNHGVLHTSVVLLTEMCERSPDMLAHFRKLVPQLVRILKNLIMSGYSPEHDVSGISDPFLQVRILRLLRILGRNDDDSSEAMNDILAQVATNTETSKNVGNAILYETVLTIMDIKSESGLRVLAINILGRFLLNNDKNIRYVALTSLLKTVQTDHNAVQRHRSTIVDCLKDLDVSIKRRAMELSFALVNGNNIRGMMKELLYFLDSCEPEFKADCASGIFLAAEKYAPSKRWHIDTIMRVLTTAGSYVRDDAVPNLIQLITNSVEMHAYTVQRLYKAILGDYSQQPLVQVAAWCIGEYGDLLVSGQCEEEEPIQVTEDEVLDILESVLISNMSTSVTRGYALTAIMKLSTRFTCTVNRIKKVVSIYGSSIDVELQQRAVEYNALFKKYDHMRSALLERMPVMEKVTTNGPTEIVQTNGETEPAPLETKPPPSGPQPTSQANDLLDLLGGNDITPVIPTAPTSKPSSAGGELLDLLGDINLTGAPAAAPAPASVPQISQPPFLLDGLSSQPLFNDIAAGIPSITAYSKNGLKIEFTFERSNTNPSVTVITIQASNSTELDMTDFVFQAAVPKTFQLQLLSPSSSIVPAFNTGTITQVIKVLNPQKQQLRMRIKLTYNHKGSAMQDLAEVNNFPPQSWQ

| Substance | percent of parent |
| --- | --- |
| GST-Nef, wild-type HIV-1 NL4.3 Nef fused to glutathione-S-transferase L164A; L165A | 17 % of control |
| GST-Nef, wild-type HIV-1 NL4.3 Nef fused to glutathione-S-transferase P129A; G130A | 74 % of control |
| GST-Nef, wild-type HIV-1 NL4.3 Nef fused to glutathione-S-transferase P131A; G132A | 75 % of control |
